This passage reports neutrophil chemotaxis towards human fracture hematoma serum in a 3D fibrin gel, mean vector speed without vs with CHIPSΔ1F (10 μg/ml); value is the speed with CHIPSΔ1F, neutrophil chemotaxis towards fMLF (10^-7 M) in a 3D fibrin gel, mean vector speed without vs with CHIPS (10 μg/ml); value is the speed with CHIPS and neutrophil chemotaxis towards human fracture hematoma serum in a 3D fibrin gel, mean vector speed without vs with CHIPS (10 μg/ml); value is the speed with CHIPS results from publication PMC5982450.

Experiment [1] deals with C5a receptor (C5aR) (human (endogenous in neutrophils)) (UniProt P21730).
The target of experiment [2] is formylated peptide receptors (FPR) (human (endogenous in neutrophils)) (UniProt P21462).
Experiment [3] shares this target. The source holds these as a separate data set.

UniProt P21730, sequence (P21730 whole entry): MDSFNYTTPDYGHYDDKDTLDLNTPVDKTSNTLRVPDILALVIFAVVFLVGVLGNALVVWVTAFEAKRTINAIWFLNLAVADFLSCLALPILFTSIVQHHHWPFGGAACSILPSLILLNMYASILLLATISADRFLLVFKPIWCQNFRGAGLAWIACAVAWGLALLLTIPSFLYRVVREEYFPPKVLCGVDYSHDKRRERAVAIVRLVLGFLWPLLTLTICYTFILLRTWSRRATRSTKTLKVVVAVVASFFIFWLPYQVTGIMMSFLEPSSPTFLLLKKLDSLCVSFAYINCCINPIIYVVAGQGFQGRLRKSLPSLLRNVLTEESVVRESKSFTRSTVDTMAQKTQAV
UniProt P21462, sequence (P21462 whole entry): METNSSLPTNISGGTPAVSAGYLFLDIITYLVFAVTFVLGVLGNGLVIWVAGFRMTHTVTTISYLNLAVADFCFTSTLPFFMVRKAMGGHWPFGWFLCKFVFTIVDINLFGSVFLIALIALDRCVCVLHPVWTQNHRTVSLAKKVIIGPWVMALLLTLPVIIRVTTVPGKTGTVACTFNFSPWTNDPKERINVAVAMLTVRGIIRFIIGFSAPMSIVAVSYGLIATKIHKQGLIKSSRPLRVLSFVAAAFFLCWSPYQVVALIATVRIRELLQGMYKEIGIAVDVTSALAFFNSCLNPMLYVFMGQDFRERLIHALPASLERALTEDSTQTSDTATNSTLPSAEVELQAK

“CHIPSΔ1F, a CHIPS mutant lacking the first N-terminal amino acid (domain or fragment)”: in experiment [1], the neutrophil chemotaxis towards human fracture hematoma serum in a 3D fibrin gel, mean vector speed without vs with CHIPSΔ1F (10 μg/ml); value is the speed with CHIPSΔ1F worked out at 4 μm/min.

Substance “chemotaxis inhibitory protein of Staphylococcus aureus (CHIPS) (from UniProt A6QIG7 29-149) (natural protein)” returned a neutrophil chemotaxis towards fMLF (10^-7 M) in a 3D fibrin gel, mean vector speed without vs with CHIPS (10 μg/ml); value is the speed with CHIPS in experiment [2] of 0.4 μm/min. Besides, the neutrophil chemotaxis towards human fracture hematoma serum in a 3D fibrin gel, mean vector speed without vs with CHIPS (10 μg/ml); value is the speed with CHIPS in experiment [1] and in experiment [3] was 3.3 μm/min in each case.
